The values below come from patent US20080102065A1 (published 2008).

As a reminder, the Kd is the free concentration of one partner at which half of the binding sites on the other are occupied at equilibrium, for simple one-to-one binding. The term koff denotes the first-order rate constant of dissociation. As usually defined, the kon is a measure of how fast the partners come together.

Changes are numbered by the printed parent chain.

The labels stand for the following.
B1: Mxb 201 (clone 201 scFv-Fc protein) (Fc fusion)
VH: QVQLQESGSGLARPSQTLSLTCAVSGGSISSSAFSWNWIRQPPGKGLEWIGYIYHTGITDYNPSLKSRVTISVDRSKNQFSLNVNSVTAADTAVYYCARGHGSDPAWFDPWGKGTLVTVSS
VL: QSVLTQPPSVSVSPGQTASITCSGDKLGDKYASWYQQRPGQSPVLVIYRDTKRPSGIPERFSGSNSGNTATLTISGTQAVDEADYYCQAWDSTTSLVFGGGTKLTVL
notes: Tested as scFv-Fc (maxibody) with an Fc derived from human IgG1
B2: Mxb 13 (clone 13 scFv-Fc protein) (Fc fusion)
VH: QVQLQQSGGGVVQPGRSLRLSCAASGFTFSDYAMHWVRQAPGKGLEWVAVISNHGKSTYYADSVKGRFTISRDNSKHMLYLQMNSLRADDTALYYCARDIALAGDYWGQGTLVTVSA
VL: DIQMTQSPSSLSASVGDRVTITCRASQSISSYLNWYQQLPGKVPKLLIYGASKLQSGVPSRFSGSGSGTDFTLTISSLQPEDFATYYCLQDYNYPLTFGPGTRLEIK
notes: as for B1
B3: Mxb 276 (clone 276 scFv-Fc protein) (Fc fusion)
VH: EVQLVQSGGGLVQPGGSLRLSCAASGFTFSSYWMSWVRQAPGKGLEWVANIKPDGSEKYYVDSVKGRFTISRDNAKNSVYLQMNSLRAEDTAVYYCARVSRGGSYSDWGRGTMVTVSS
VL: QSVLTQPPSASGSPGQSVTISCTGTSSDVGGFNYVSWYQKYPGKAPKLVIYEVSKRPSGVPDRFSGSKSGNTASLTVSGLQAEDEADYYCSSWAPGKNLFGGGTKLTVL
B4: Mxb 352 (clone 352 scFv-Fc protein) (Fc fusion)
VH: B3 VH with T28R, S35T, I70M, Y105F, R110Q, M113L
VL: QSALTQPASVSGSPGQSITIPCTGTSSDIGTYDYVSWYQQHPGKVPKVIIYEVTNRPSGVSNRFSGSKSGNTASLTISGLQADDEADYYCNSFTKNNTWVFGGGTKLTVL
B5: Mxb 323 (clone 323 scFv-Fc protein) (Fc fusion)
VH: B3 VH with E1Q, Q6E, A24V, S31K, S35T, D62E, L86V, Y105F
VL: QSALTQPASVSGSPGQSITISCTGTSSDVGSYNLVSWYQQHPGKVPKLIIYEVSNRPSGVSHRFSGSKSGNTASLTISGLQAEDEADYYCSSLTSSGTWVFGGGTKVTVL
B6: Mxb 307 (clone 307 scFv-Fc protein) (Fc fusion)
VH: B3 VH with Q6E, A24V, S31K, S35T, D62E, L86V, Y105F, R110Q
VL: QSVLTQPPSASGSPGQSVTISCTGTSSDVGGYNYVSWYQQHPDKAPRLMIYDVNKRPSGVPDRFSGSKSGNTASLTVSGLQAEDEAHYYCNSYAGSNNWVFGGGTQLTVL
notes: as for B1
B7: Mxb 319 (clone 319 scFv-Fc protein) (Fc fusion)
VH: QVQLVQSGAEIKKPGASVKVSCKTFGSPFSTNDIHWVRQAPGQGLEWMGIIDTSGAMTRYAQKFQGRVTVTRETSTSTVYMELSSLKSEDTAVYYCAREGCTNGVCYDNGFDIWGQGTLVTVSS
VL: DIQMTQSPSTLSASIGDRVTITCRASEGIYHWLAWYQQKPGKAPKLLIYKASSLASGAPSRFSGSGSGTDFTLTISSLQPDDFATYYCQQYSNYPLTFGGGTKLEIK
notes: as for B1
B8: Mxb 378 (clone 378 scFv-Fc protein) (Fc fusion)
VH: QVQLVESGGGLVQPGRSLILSCAVSGFTFSKYWMTWVRQAPGKGLEWVANIKPDGSEKYYVESVKGRFTISRDNAKNSVYLQMNSVRAEDTAVYYCARVSRGGSFSDWSQGTLVTVSS
VL: QSALTQPPSASGSPGQSVTISCTGTSGDVGAYNYVSWYQQYPGKAPKLMIYEVSKRPSGVPDRFSGSKSGNTASLTVSGLQAEDEADYYCNSYRGSNGPWVFGGGTKVTVL
B9: Mxb 295 (clone 295 scFv-Fc protein) (Fc fusion)
VH: EVQLVESGGGLVQPGGSLRLSCAASGFTFSSYAMSWVRQAPGKGLEWVSGISGSGSSEGGTYYADSVKGRFTLSRDNSKNTLYLQMNSLRAEDTALYYCVKDRPSRYSFGYYFDYWGRGTLVTVSS
VL: LPVLTQPPSVSVSPGQTASIACSGNKLGDKYVSWYQQKPGQSPLLVIYQDTKRPSGIPERFSGSNSGNTATLTISGTQAMDEADYYCQAWDSSTDVVFGGGTKLTVL
notes: as for B1
B10: Mxb 15 (clone 15 scFv-Fc protein) (Fc fusion)
VH: QVQLQESGPGLVRPSGTLSLTCAVSGGSIGSSNWWSWVRQAPGKGLEWIGEISQSGSTNYNPSLKGRVTISLDRSRNQLSLKLSSVTAADTAVYYCARQLRSIDAFDIWGPGTTVTVSA
VL: SYVLTQPPSVSVSPGLTATITCSGDKLGDKYASWYQQKPGQSPVLVIYQDRKRPSGIPERFSGSNSGNTATLTISGTQAVDEADYYCQAWDSDTSYVFGTGTQLTVL
notes: as for B1
B11: Mxb 16 (clone 16 scFv-Fc protein) (Fc fusion)
VH: QVQLQESGPGLVKPSETLSLTCTVSGGYINNYYWSWIRQPPGKGLEWIGYIHYSGSTYYNPSLKSRVTISEDTSKNQFSLKLSSATAADTAVYYCARVGYYYDSSGYNLAWYFDLWGRGTLVTVSA
VL: SSELTQDPAVSVALGQTVRITCQGDNLRSYSATWYQQKPGQAPVLVLFGENNRPSGIPDRFSGSKSGDTAVLTITGTQTQDEADYYCTSRVNSGNHLGVFGPGTQLTVL
notes: as for B1

The target in the first test is T1, huEpoR expressed on the cell surface (UT-7 cells) (human, UniProt P19235 25-508).
T1 sequence (looked up): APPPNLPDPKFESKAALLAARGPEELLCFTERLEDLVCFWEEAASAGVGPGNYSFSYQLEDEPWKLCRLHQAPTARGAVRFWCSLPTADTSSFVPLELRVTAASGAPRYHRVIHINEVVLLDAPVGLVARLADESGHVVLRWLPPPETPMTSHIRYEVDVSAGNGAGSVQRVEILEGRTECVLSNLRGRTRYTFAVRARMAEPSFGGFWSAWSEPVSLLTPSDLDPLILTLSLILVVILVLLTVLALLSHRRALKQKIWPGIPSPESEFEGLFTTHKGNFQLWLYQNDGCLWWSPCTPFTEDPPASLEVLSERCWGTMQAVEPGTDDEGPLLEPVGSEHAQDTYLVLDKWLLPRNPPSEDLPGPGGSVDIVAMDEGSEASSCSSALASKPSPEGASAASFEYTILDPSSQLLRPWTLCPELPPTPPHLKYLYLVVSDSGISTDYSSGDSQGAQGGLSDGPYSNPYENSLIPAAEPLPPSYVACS
Kind of test: cell-based or functional assay.
Take B1: the “Average EC50 (nM), UT-7-luciferase (STAT5 reporter) assay” value (“Average EC50 (nM), UT-7-luciferase” below) came out at 8.28 nM and the “Ratio (EC50 of Epo / EC50 of the scFv-Fc), UT-7-luciferase assay” value stood at 0.001.

Turning to B2, the “Average EC50 (nM), UT-7-luciferase” value turned out to be 4.03 nM and the “Ratio (EC50 of Epo / EC50 of the scFv-Fc), UT-7-luciferase assay” value came out at 0.002.

With B3, the “Average EC50 (nM), UT-7-luciferase” value was 0.322 nM and the “Ratio (EC50 of Epo / EC50 of the scFv-Fc), UT-7-luciferase assay” value was 0.03.

For the molecule B4, the “Average EC50 (nM), UT-7-luciferase” value was found to be 2.16 nM and the “Ratio (EC50 of Epo / EC50 of the scFv-Fc), UT-7-luciferase assay” value worked out at 0.004.

On to B5, for which the “Average EC50 (nM), UT-7-luciferase” value stood at 0.613 nM and the “Ratio (EC50 of Epo / EC50 of the scFv-Fc), UT-7-luciferase assay” value stood at 0.016.

On to B6, for which the “Average EC50 (nM), UT-7-luciferase” value stood at 0.381 nM and the “Ratio (EC50 of Epo / EC50 of the scFv-Fc), UT-7-luciferase assay” value was determined as 0.025.

As to B7, the “Average EC50 (nM), UT-7-luciferase” value amounted to 5.87 nM and the “Ratio (EC50 of Epo / EC50 of the scFv-Fc), UT-7-luciferase assay” value is 0.002.

On to B8, for which the “Average EC50 (nM), UT-7-luciferase” value was 0.055 nM and the “Ratio (EC50 of Epo / EC50 of the scFv-Fc), UT-7-luciferase assay” value was determined as 0.175.

Take B9: the “Average EC50 (nM), UT-7-luciferase” value worked out at 0.607 nM and the “Ratio (EC50 of Epo / EC50 of the scFv-Fc), UT-7-luciferase assay” value was 0.016.

Take B10: the “Average EC50 (nM), UT-7-luciferase” value is 2.8 nM and the “Ratio (EC50 of Epo / EC50 of the scFv-Fc), UT-7-luciferase assay” value came out at 0.003.

For the next test, the target named is T2, mouse EpoR (muEpoR) (mouse, UniProt P14753 25-249, limits assumed).
T2 sequence (looked up): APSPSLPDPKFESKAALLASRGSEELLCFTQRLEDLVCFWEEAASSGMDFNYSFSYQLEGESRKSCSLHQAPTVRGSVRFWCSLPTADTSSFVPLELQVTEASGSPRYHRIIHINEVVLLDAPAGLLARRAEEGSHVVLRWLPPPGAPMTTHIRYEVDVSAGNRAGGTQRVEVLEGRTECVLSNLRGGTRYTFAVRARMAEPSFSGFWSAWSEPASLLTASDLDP
Kind of test: ELISA on coated muEpoR, scFv-Fc at 5 µg/ml (Example 17). (ELISA stands for enzyme-linked immunosorbent assay.)
For the molecule B2, the binding result was “no binding (tested: 5 µg/ml)”.

For the molecule B6, the binding result is “no binding (tested: 5 µg/ml)”.

In the case of B7, the binding result is “no binding (tested: 5 µg/ml)”.

On to B11, for which the binding result is recorded as “no binding (tested: 5 µg/ml)”.

For the molecule B9, the binding result is “no binding (tested: 5 µg/ml)”.

For the molecule B10, the binding result is given as “no binding (tested: 5 µg/ml)”.

For the next test, the target named is T3, huEpoR protein (soluble human erythropoietin receptor) (human, UniProt P19235 25-250, limits assumed).
T3 construct: also called soluble huEpoR; biotinylated huEpoR
T3 sequence (looked up): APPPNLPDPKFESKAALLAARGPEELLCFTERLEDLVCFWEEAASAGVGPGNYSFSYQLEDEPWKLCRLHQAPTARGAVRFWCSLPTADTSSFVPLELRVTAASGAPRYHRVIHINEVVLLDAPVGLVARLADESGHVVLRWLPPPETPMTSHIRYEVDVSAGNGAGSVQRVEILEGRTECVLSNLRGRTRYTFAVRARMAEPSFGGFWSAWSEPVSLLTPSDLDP
Kind of test: SPR, Biacore T100; scFv-Fc captured on anti-human IgG Fc CM5 chip, EpoR as analyte; 1:1 fit.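 Also: measured at 25 °C in HBS-EP buffer with 0.1 mg/ml BSA, flowed at 50 µl/min, 1 min association then dissociation (10 min human, 5 min cyno EpoR).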
For the molecule B1, the affinity, expressed as Kd, was 4030 nM; the off-rate constant (koff) was determined as 0.0187 s⁻¹; the kon was 4600 M⁻¹ s⁻¹.

Take B2: the Kd amounted to 1040 nM, the dissociation rate constant (koff) came to 0.0568 s⁻¹ and the kon amounted to 55000 M⁻¹ s⁻¹.

The molecule B6 yielded a Kd of 108 nM, an off-rate (koff) of 0.246 s⁻¹ and a kon of 2.28e+06 M⁻¹ s⁻¹.

In turn, B7 registered a dissociation constant (Kd) of 212 nM, a koff of 0.0335 s⁻¹ and a kon of 158000 M⁻¹ s⁻¹.

For B11, binding was put at a Kd of 2190 nM, the koff stood at 0.142 s⁻¹ and the on-rate (kon) is 65000 M⁻¹ s⁻¹.

As for B9, the Kd was 163 nM, the koff is 0.00296 s⁻¹ and the kon is 18000 M⁻¹ s⁻¹.

Take B10: the Kd was determined as 1950 nM, the off-rate constant (koff) was 0.119 s⁻¹ and the kon is 61000 M⁻¹ s⁻¹.

For a further test, the target named is T4, cynomolgus monkey EpoR (cynoEpoR) (cynomolgus monkey, UniProt A0A2K5WKK4 25-250).
T4 construct: Soluble protein (coated in ELISA, analyte in SPR)
T4 sequence: T3 sequence (looked up) with A19V, G47A, G49S, G51D, Q58H, V112I, S135G, V138I, T148A
The test is described as above.
As to B2, the Kd turned out to be 920 nM, the koff turned out to be 0.0597 s⁻¹ and the association rate constant (kon) came out at 65000 M⁻¹ s⁻¹.

Regarding B6, the affinity, expressed as Kd, was 1210 nM; the off-rate (koff) turned out to be 0.361 s⁻¹; the on-rate (kon) came to 299000 M⁻¹ s⁻¹.

Regarding B7, the dissociation constant Kd was determined as 121 nM, the koff was found to be 0.0258 s⁻¹ and the kon came out at 213000 M⁻¹ s⁻¹.

Take B11: the dissociation constant (Kd) stood at 4360 nM, the off-rate constant (koff) was 0.283 s⁻¹ and the kon is 65000 M⁻¹ s⁻¹.

In the case of B9, the dissociation constant (Kd) was determined as 539 nM, the koff came out at 0.0221 s⁻¹ and the kon was 41000 M⁻¹ s⁻¹.

B10 had a Kd of 3130 nM, an off-rate constant (koff) of 0.115 s⁻¹ and an on-rate (kon) of 37000 M⁻¹ s⁻¹.
